Literature values as cited in patent publication US20250241861A1, “Mechano-Sensitive Microcapsules For Drug Delivery” (The Trustees of the University of Pennsylvania, priority 2015, published 2025).

Assays:
[1] = system: engineered cartilage; settings: 10 ng/ml, 5 days post-injury
[2] = system: MMP activity in chondrocytes; settings: 10 ng/ml, after inflammatory stimulation of chondrocytes

B1: TGF-β3: transforming growth factor beta, anabolic compound / chondrogenic factor (protein, UniProt P10600 301-412, looked up)
Transforming growth factor …: ALDTNYCFRNLEENCCVRPLYIDFRQDLGWKWVHEPKGYYANFCSGPCPYLRSADTTHSTVLGLYNTLNPEASASPCCVPQDLEPLTILYYVGRTPKVEQLSNMVVKSCKCS
[1]
  reduction of GAG loss compared to injured controls: about 30%
[2]
  MMP activity: reduce MMP activity
